The data set deals with the molecule itself. The data set can be described thus: co-sedimentation; FtsZ 5 µM, His6-FLAG-Kil 10 µM, His6-tagged ZipAC domains 5 µM, GTP 1 mM in polymerization buffer; 1 mM CaCl2 for calcium-induced bundling; TLA 100.3 rotor at 70,000 rpm; supernatant and pellet on Coomassie-stained gels.

B1: E. coli FtsZ (natural protein, UniProt P0A9A6 1-383, looked up)
chain: MFEPMELTNDAVIKVIGVGGGGGNAVEHMVRERIEGVEFFAVNTDAQALRKTAVGQTIQIGSGITKGLGAGANPEVGRNAADEDRDALRAALEGADMVFIAAGMGGGTGTGAAPVVAEVAKDLGILTVAVVTKPFNFEGKKRMAFAEQGITELSKHVDSLITIPNDKLLKVLGRGISLLDAFGAANDVLKGAVQGIAELITRPGLMNVDFADVRTVMSEMGYAMMGSGVASGEDRAEEAAEMAISSPLLEDIDLSGARGVLVNITAGFDLRLDEFETVGNTIRAFASDNATVVIGTSLDPDMNDELRVTVVATGIGMDKRPEITLVTNKQVQQPVMDRYQQHGMAPLTQEQKPVAKVVNDNAPQTAKEPDYLDIPAFLRKQAD
notes: cell division protein FtsZ, E. coli; expressed from pET11a-ftsZ (from H. Erickson); No tag is named for this construct; also called FtsZWT; source: E. coli BL21(DE3) pET11a-ftsZ (WM971), purified (successive 20% and 30% ammonium sulfate cuts)
With B1, the binding result is on record as “binds”.

(Values after paper PMC3961180, “The Kil Peptide of Bacteriophage λ Blocks Escherichia coli Cytokinesis via ZipA-Dependent Inhibition of FtsZ Assembly” (PLoS Genetics, 2014).)
